Test results as given in the supplement of paper PMC12042874.
± gives the uncertainty stated by the source.

Test: amyloid nucleation score (Sup35N fusion, yeast selection) (log enrichment); library NNK3; higher = more nucleation; inactive = no reads after selection
Outline: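 After 24 hours of induction with 100 μM copper sulfate, psi-negative yeast expressing peptides of 20 random codons fused to Sup35N were grown for 7 days at 30°C on medium lacking adenine and uracil. Input and output plasmid inserts were sequenced with Illumina, and sequences with under 100 input reads were discarded. Scores for nucleation are the DiMSum log enrichment of output over input reads, centred on the mode score of non-aggregating sequences.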

Amyloid nucleation score, 0.587 ± 0.24:
GWLYYQLNLDNTSVRQHWSV

Amyloid nucleation score, inactive:
GWLKNNYSTYDTEKKFTATF
GWRAIWGNWNLQYRTS
GYAISRFVFDTFRIFAVL
GYCGQVCWFNAKSWMKRMTF
GYFARLR
GYKDIDLTSERGK
GYQLLNHLHAYTAGTNNLRL
GYVSALMMIFYYHLWKKGPC
HAAYGKCLQWFTRLVCYPVA
HAMCHVVGTRISGYLCAYGT
HASSWFYWRIFASGLNSDR
HATGSMNVSVSAGVRQQILR
HAVYL
HAWTQPNHI
HAYSWVLFAVMSLSRLPTWN
HCEFRSQSDTNVVNLCGQGW
HCGRTEKDGQLCCENLSGFS
HCHCIVEYQFFSVHLIRTYE
HDSQMWYLSIIESYLVQYLM
HEIPETQFCSIWFDSVCWCL
HFHSVIELVYG
HFILFSSYPFYF
HFNCRYNAGCDGVLVFDVLL
HFSSYAFLRTWTLYRHLTFM
HFYYPLCWVCSVLLSHLVPD
HGFMI
HGSLMATGICWLGIFVSEVA
HICLA
HIKVVRPRSRCDLLGSPISQ
HILFLYRDLVILVLCSSHPC
HIVIISYFRLLWSCIAPHGA
HKNVCRIQRR
HKVQESAY
HKWLV
HLIMNSDLGAATNIFMNPVA
HLLEVFKDSCRTRGRMLLWG
HLLYYVCRHQQFLWMDVQVE
HLPWFRVGATDMLSYTKSLG
HLRKVCGGFM
HMEYLKQLFFRTVLFTDQSV
HMFMRNLEMRVGHSFHRLRD
HMFRVVPSLIRI
HMLYLNLFGIIGIIFCDWNM
HMNGEDESDNGYIHFLRRER
HNLHSYEHRVRTSQAV
HNPLVRFAQHLLITEDQCMN
HNQKSCVYMSEGSWRSL
HNSYRED
HNVFST
HPVLRIRLLREKMMRFS
HQVNVLWQVYILAFSLTSRH
HQWYG
HRLTCELFTWMPAEVCVWAD
HRRSMQLWG
HRSIRLYSETDWFRGLGSAG

Amyloid nucleation score, 0.648 ± 0.27:
HLTVVSSKYITPSGTLMELH

Amyloid nucleation score, 0.025 ± 0.6:
HILSCSQVFG

Amyloid nucleation score, -0.366 ± 0.53:
HMIRAVFLSCMSASILVTIK

Amyloid nucleation score, 2.46 ± 0.054:
HISRYEITVGCLIFRLLTRE

Amyloid nucleation score, 2.13 ± 0.078:
GYYLLTVCGDWCSVSVHSGF

Amyloid nucleation score, 1.78 ± 0.077:
HNCPFFSTDMKCSKNIHIFG

Amyloid nucleation score, 1.37 ± 0.12:
HIILFSIKSSKD

Amyloid nucleation score, 0.505 ± 0.49:
HHNTYCYVLFELFTV

Amyloid nucleation score, 2.3 ± 0.075:
HFSMHITMLEFLTFNSARRV
